How the values were obtained:
EGFR = biological target: T1, EGFR (Homo sapiens, UniProt P00533); assay: immunoprecipitation of GFP-fused SH2 domains with EGFR in HEK 293 cells; type: cell-based; conditions: GFP-fusion expressed in HEK 293 cells, EGF 100 ng/ml, anti-GFP and anti-EGFR antibodies
T1 construct: endogenous in cells; host or cells: HEK 293
Text: The three variant SH2 domains mentioned in the previous sentence were dubbed as 8V/10A/15L-substituted SH2 domains, or the TrM SH2 domains, in the following descriptions, as well as in FIG. 11 and FIG. 12. The wild-type (Wt) and TrM SH2 domains, subcloned into the pEGFPC2 vector, were expressed in the HEK 293 cells as a GFP-fusion protein. Methods used in this and the following sections are described below.
Anti-GFP rabbit polyclonal antibody was purchased from Sigma-Aldrich. Anti-EGFR rabbit polyclonal antibody was purchased from Millipore. Anti-p44/42 MAPK (Erk1/2) mouse monoclonal antibody, and anti-phospho-p44/42 MAPK (Thr202/Tyr204) mouse monoclonal antibody were purchased from Cell Signaling. HEK 293 cells were grown in Dulbecco's modification of Eagle's medium (DMEM, Sigma-Aldrich) supplemented with 10% fetal bovine serum (FBS, SAFC Biosciences), 50 units/ml penicillin and 50 μg/ml streptomycin (GIBCO Invitrogen Corp.) in a humidified atmosphere of 5% CO2 in air at 37° C. EGF (Invitrogen) at a final concentration of 100 ng/ml was added to the medium at the indicated time point. Transient transfections were carried out with jet-PEI (PolyPlus-Transfection; Illkirch, France) according to manufacturer's instruction.
HEK 293 cells were transfected with the SH2 domain construct subcloned in the pEGFPC2 vector, and incubated in serum-containing full medium for 24 h followed by serum-starvation for 16 h and then EGF (100 ng/ml) treatment for 10 min, pervanadate treatment for 10 min. The whole cell lysates were prepared and subjected to IB analysis to detect phosphorylated Erk and total Erk.
HEK 293 cells were lysed with cold lysis buffer (1% NP-40, 50 mM Tris-HCl pH 7.4, 150 mM NaCl, 2 mM EDTA, 50 mM NaF, 10% Glycerol and protease inhibitor cocktail diluted at 1:1000). After centrifugation at 13,000*g for 15 min, the supernatants were collected. After clearance of the lysate with appropriate pre-immune serum and protein G (Roche), immunoprecipitation (IP) and immunoblotting (IB) were performed. […]

[1] = test system: non-phosphorylated fluorescein-GGYGG peptide (SEQ ID NO: 24); assay: fluorescence polarization binding assay, non-phosphorylated GGYGG peptide
Sequence of non-phosphorylated fluorescein-GGYGG peptide (SEQ ID NO: 24) (as listed by the source): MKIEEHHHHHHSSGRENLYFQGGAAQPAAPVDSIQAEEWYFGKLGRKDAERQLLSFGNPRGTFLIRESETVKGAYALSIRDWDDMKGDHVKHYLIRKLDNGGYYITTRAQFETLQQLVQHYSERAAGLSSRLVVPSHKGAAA
Experimental: (§1) Each peptide was synthesized on the TentaGel amide resin (INTAVIS Inc.) and N-terminally labeled with fluorescein using NHS-fluorescein (Thermo Fisher Scientific). Each of the 13 variant and the wild-type SH2 domain was produced by overexpression in the Escherichia coli BL21(DE3) strain cultured in LB media (EMD Chemicals). Expression was induced by 0.3 mM isopropyl β-D-1-thiogalactopyranoside (IPTG), and the cell culture was incubated for 5 hours at 37° C. The cells were harvested by centrifuge, and broken on ice, in buffer solution containing 20 mM sodium phosphate, 0.1 M NaCl, 20 mM imidazole, 1 mg/ml lysozyme and 1% Triton-X 100, adjusted at pH 7.8. Affinity purification was performed with the Ni-NTA agarose resin (Qiagen Inc.), according to the manufacturer's instruction. The purified material was dialyzed against phosphate-buffered saline (PBS), pH 7.4, at 4° C. overnight. Measurements of fluorescence polarization were conducted by titrating the SH2 domain concentration, while keeping the peptide concentration constant. Kd values were calculated with the GraphPad Prism software, by assuming the one-site binding model (GraphPad Software).
(§2) The determined Kd values of interaction between the 14 SH2 domains (including the wild-type) and seven peptides were listed in FIG. 7(a).

[2] = test system: seven fluorescein-labeled pTyr-containing peptides; assay: in-solution fluorescence polarization binding assay, set of seven peptides; conditions: average over seven peptides, relative to the wild type of the same SH2 domain
Experimental: as §1, §2
The wild-type and variant Src SH2 domains were expressed in E. coli BL21(DE3) strain grown in the LB media, by inducing protein expression with 0.3 mM IPTG, and incubating the cell culture at 30° C. for six hours. Cells were harvested by centrifuge, and broken on ice in buffer solution containing 20 mM sodium phosphate, 0.1 M NaCl, 20 mM imidazole, 1 mg/ml lysozyme, 1% Triton-X 100, adjusted at pH 7.8. Affinity purification was performed with the Ni-NTA, agarose resin, according to the manufacturer's instruction. […]
Fluorescence polarization assay was conducted to determine Kd values of the interaction between the wild-type or variant Src SH2 domain and seven fluorescein-labeled pTyr-containing peptides (FIG. 9a).

[3] = test system: tyrosine-phosphorylated proteins from HeLa cell lysate; assay: GST pulldown assay, pervanadate-treated HeLa cell lysate; type: binding; conditions: GST fusion, compared to the Wt SH2 domain, 4G10 immunoblot
Experimental: The wild-type (Wt) and triple mutant (TrM) Fyn SH2 domains (Ala^139-Gly^249) were respectively subcloned into the pETM30 vector (Dümmler, et al. Microb. Cell Fact. 4, 34 (2005)). The Fyn SH2 domain constructs contain a FLAG tag sequence ([…]) (SEQ ID NO: 27) at the C-terminus. To create the GST control vector, a stop codon was inserted after the GST tag sequence of the original pETM30 vector. The GST and GST-SH2 proteins were expressed in E. coli BL21(DE3). HeLa cells were treated with 50 μM pervanadate for 10 min at 37° C. HeLa cells were lysed on ice in lysis buffer containing 0.5% NP-40, 50 mM HEPES pH 7.4, 1 mM magnesium chloride, 150 mMKCl, and the COMPLETE protease inhibitor cocktail (Roche). The GST pulldown assay was conducted as described (Li et al. J. Biol. Chem. 278, 3852-3859 (2003)).

[4] = biological target: fluorescein-GGpYGG peptide (SEQ ID NO: 23); assay: fluorescence polarization binding assay, GGpYGG peptide
[5] = test system: tyrosine-phosphorylated proteins of U937 cell lysate; assay: Far-Western blotting, pervanadate-treated U937 cell lysate; type: binding, human; conditions: GST fusion 3.5 μg/ml
Experimental: The GST protein and GST-Src SH2 TrM were prepared as 3.5 μg/ml concentration in the TBS buffer (50 mM Tris-HCl pH 7.2, 137 mM NaCl). The cultured U937 cells were treated with or without 50 μM pervanadate in PBS for 10 min at 37° C. The cells were lysed in the buffer (0.5% NP-40, 50 mM HEPES pH 7.4, 1 mM magnesium chloride, 150 mMKCl) with sonication on ice, and supernatant was loaded on an SDS-PAGE gel for separation and following transfer to the PVDF membrane (Millipore). The membrane was blocked with 5% milk in TBS-T (0.5% Tween-20 in TBS) overnight at 4° C., and probed with 3.5 μg/ml GST proteins for 1 hour at room temperature. The membrane was washed with TBS-T, and incubated with anti-GST antibody-HRP (horseradish peroxidase) conjugate (Sigma, #A7340) for 1 hour at room temperature. The signal from HRP was detected as enhanced chemiluminescence on an X-ray film.

MCF-7 cells = assay: cell viability after gold nanoparticle delivery of SH2 protein, EGF treatment, MCF-7; type: cell-based; conditions: MCF-7 (no EGF receptor), 100 ng/ml EGF
Experimental: (§3) The hexa-histidine-tagged SrcWt and TrM proteins were purified to homogeneity in 5 mM HEPES buffer (pH 7.6). 1 nM of gold nanoparticle was mixed with 100 nMWt or TrM variant protein. The MCF-7 and A549 cells were starved six hours before treatment. The cells were then treated with 100 ng/ml EGF for 20 hours. The nanoparticle-protein mixture was applied to cells. Cells were trypsinized and stained using 0.4% trypan blue (Sigma-Aldrich) and viable and total cell numbers were counted haemacytometer with the use of a microscope according to manufacturer's instruction.

A549 cells = assay: cell viability after gold nanoparticle delivery of SH2 protein, EGF treatment, A549; type: cell-based; conditions: 100 ng/ml EGF, compared with the Wt SH2 domain
Experimental: as §3

[6] = test system: phosphorylated proteins (ALK) from H370 cell lysate; assay: GST pulldown, H370 cell lysate with ALK activation by mAb46; type: binding, human; conditions: GST fusion, compared to the Wt
Sequence of phosphorylated proteins (ALK) from H370 cell lysate (Q9UM73 1060-1620 limits assumed): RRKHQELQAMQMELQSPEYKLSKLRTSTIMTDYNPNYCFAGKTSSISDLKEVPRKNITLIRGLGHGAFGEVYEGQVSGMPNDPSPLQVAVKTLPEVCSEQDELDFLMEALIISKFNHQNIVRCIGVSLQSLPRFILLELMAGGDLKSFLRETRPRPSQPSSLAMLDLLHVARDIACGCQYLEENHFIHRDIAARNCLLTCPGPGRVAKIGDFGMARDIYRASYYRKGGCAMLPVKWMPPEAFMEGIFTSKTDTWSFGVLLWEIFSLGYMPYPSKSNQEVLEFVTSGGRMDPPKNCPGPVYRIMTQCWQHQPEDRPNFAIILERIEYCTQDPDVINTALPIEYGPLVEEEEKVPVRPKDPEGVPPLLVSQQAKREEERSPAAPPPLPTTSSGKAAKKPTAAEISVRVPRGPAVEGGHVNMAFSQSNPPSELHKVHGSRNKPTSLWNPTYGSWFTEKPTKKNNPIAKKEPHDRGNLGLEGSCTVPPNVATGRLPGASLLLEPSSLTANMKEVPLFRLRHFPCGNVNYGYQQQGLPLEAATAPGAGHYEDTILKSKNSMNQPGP
Experimental: The Wt human Src (hSrc) SH2, the TrM hSrc SH2, and Wt Rous sarcoma virus Src (vSrc) SH2 domains were prepared, respectively, as GST tag fusion proteins. The vSrc SH2 domain is almost identical to the hSrc SH2 domain (there are three-residue differences in the SH2 domain region, and the differences are located outside of the target-binding surface). 5 μg of the GST-tagged SH2 domain was incubated with 500 μg of H370 cell lysate treated with or without the ALK activation antibody mAb-46 at room temperature for 30 min. 20 μl of glutathione sepharose beads was then added for another 30 minincubation at room temperature. As a positive control, the anti-pTyr antibody P-Tyr-100 (Cell Signaling, #9411) was used for immunoprecipitation. 4 μl of the P-Tyr-100 antibody was incubated with 500 μg H370 cell lysate treated with or without the ALK activation antibody mAb-46 for 2 hours at 4° C. Next, 20 μl protein G beads was added for another incubation for two hours at 4° C. The glutathione beads or protein G beads were washed with 1×PBS (phosphate buffered saline) three times. The beads were added to 30 μl 2×SDS loading buffer and boiled for 10 min. The samples were resolved on an 8% Bis-Tris SDS-PAGE gel. The gel was applied to Western blotting to transfer the samples onto PVDF membrane (Millipore) and the proteins were probed with the P-Tyr-100 antibody. […]

Molecule	binding to EGFR (immunoprecipitation) (EGFR)	binding to non-phosphorylated peptide [1]	average affinity increase, Kd[wild-type] divided by Kd[variant] [2]	ability to bind tyrosine-phosphorylated proteins (GST pulldown) [3]	Kd [4]	detection of tyrosine-phosphorylated proteins by Far-Western blotting [5]	cell viability upon EGF stimulation (MCF-7 cells)	cell viability upon EGF treatment (A549 cells)	capture of phosphorylated proteins from H370 cell lysate upon stimulation [6]
T8V/S10A/K15L: variant Fyn SH2 domain: Thr position 8 to Val, Ser position 10 to Ala, Lys position 15 to Leu; SEQ ID NO:17 (protein, Synthetic construct T8V/S10A/K15L) APVDSIQAEEWYFGKLGRKDAERQLLSFGNPRGTFLIRESETVKGAYALSIRDWDDMKGDHVKHYLIRKLDNGGYYITTRAQFETLQQLVQHYSERAAGLCCRLVVPCHKG	strong binding	did not show detectable binding	293 fold	enhanced ability	–	–	–	–	–
T8I/S10A/K15L: variant Fyn SH2 domain; SEQ ID NO:16 (protein, Synthetic construct T8I/S10A/K15L) APVDSIQAEEWYFGKLGRKDAERQLLSFGNPRGTFLIRESETIKGAYALSIRDWDDMKGDHVKHYLIRKLDNGGYYITTRAQFETLQQLVQHYSERAAGLCCRLVVPCHKG	–	–	86.4 fold	–	–	–	–	–	–
T8V/C10A/K15L: variant human Src SH2 domain, position 8 Val, position 10 Ala, position 15 Leu; SEQ ID NO:21 (protein, Synthetic construct T8V/C10A/K15L) DSIQAEEWYFGKITRRESERLLLNAENPRGTFLVRESETVKGAYALSVSDFDNAKGLNVKHYLIRKLDSGGFYITSRTQFNSLQQLVAYYSKHADGLCHRLTTVCPTSK	strong binding	–	238 fold	–	510 nM	broad detection of tyrosine-phosphorylated proteins	did not significantly affect cell variability	reduced cell variability	substantially larger amount
A8V/S10A/K15L: variant human Grb2 SH2 domain, Met55 to Pro158 with A8V, S10A, K15L substitutions; SEQ ID NO: 22 (protein, Synthetic construct Grb2_triple) MKPHPWFFGKIPRAKAEEMLSKQRHDGAFLIRESESVPGDFALSVKFGNDVQHFLVLRDGAGKYFLWVVKFNSLNELVDYHRSTSVSRNQQIFLRDIEQVPQQP	strong binding	–	–	–	–	–	–	–	–

Reference: patent US10274499B2, “SH2 domain variants” (THE UNIVERSITY OF WESTERN ONTARIO, priority 2012, dated 2019)
